{"source": "patent US20240279845", "system": "disulfide cyclized peptide Mpa-Tyr-II-Pro-Mea"}
{"substance": "thrombin", "values": [{"measurement": "thrombin activity in screen at compound concentration of around 10 µM (fluorogenic substrate)", "result": "reduced the thrombin activity 52%"}]}
